Test results reported in patent US8530235B2, “Medium that supports culture of an oocyte and modulation of granulosa cell apoptosis” (Adelaide Research & Innovation Pty Ltd., priority 2005, dated 2013).

System: cumulus cells
Experiment: Cumulus cell apoptosis in oocytectomized complexes (OOX) and COC, TUNEL with confocal microscopy
Assay type: cell-based, Bovine
Conditions: for effect on incidence of cumulus cell apoptosis: OOX cultured with increasing doses (GDF-9 0-175 ng/ml, BMP-6 0-100 ng/ml, BMP-15 0-20% v/v, 5-50 DO), presence or absence of FSH
Protocol: Bovine ovaries were collected from local abattoir and transported to the laboratory in warm saline (30-35° C.). Cumulus-oocyte complexes (COC) were aspirated from antral follicles (2- to 8-mm diameter) using an 18-gauge needle and a 10-ml syringe containing ˜2 ml aspiration media (Hepes-buffered Tissue Cultured Medium-199: TCM-199, ICN Biochemicals, Irvine, Calif., USA) supplemented with 50 μg/ml kanamycin (Sigma-Aldrish, St. louis, Mo.), 4 mg/ml fatty acid-free bovine serum albumin (FAF-BSA) (ICPbio ltd, Auckland, NZ). Intact COC with compact cumulus vestment greater than five cell layers and evenly pigmented cytoplasm were selected under a dissecting microscope and washed twice in Hepes-buffered TCM-199 and once in corresponding culturing media.
The cytoplasm of each oocyte was microsurgically removed from the COC (oocytectomy) using a micromanipulator as described in Buccione et al (Buccione et al. (1990) Dev Biol 138, 16-25.). The resulting oocytectomized complex (OOX) consists of a hollow zona pellucida surrounded by several layers of intact CC.
Denuded oocytes (DO) were generated by removing CC from COC by vortexing for approximately 4 minutes in 2 ml H-TCM-199/BSA. Any remaining CC were removed by repeated passage of the oocytes through a fine-bore fire-polished glass pipette in H-TCM-199/BSA.
CC apoptoic DNA was detected using TUNEl (Roche Diagnostic, Penzberg, Germany) according to the manufacturer's instructions. Briefly, following culture COC and OOX complexes were washed twice in PBS (pH 7.4) containing 1% BSA, fixed in 4% paraformaldehyde in PBS (pH 7.4) overnight at 4° C. and washed twice with PBS/BSA before placing on Cell-Tak-coated coverslips (Beckton Dickinson Biosciences, Franklin lakes, N.J.). Complexes were then permeabilized in 0.11/u Triton X-100 in 0.1% sodium citrate for 1 hour at room temperature and washed 3 times in PBS/BSA. The complexes were then incubated in fluorescein-conjugated dUTP and terminal deoxynucleotide transferase (TUNEl reagents, Roche) for 1 hour at 37° C. in the dark. Positive controls were incubated in DNAse 1 (0.005 U/µl), which cleaves all DNA, for 20 minutes at room temperature and washed twice in PBS/BSA before TUNEl. Negative controls were incubated in fluorescein-dUTP in the absence of TdT. After TUNEl, complexes were washed twice in PBS/BSA and counterstained with propidium iodide 0.5 μg/ml (PI) plus RNase A (0.1 mg/ml) for 1 hour at room temperature in the dark to label all nuclei. Complexes were then washed twice in PBS/BSA and mounted with slight coverslip compression in VectaShield anti-bleaching solution (Vector labs, Burlingame, Calif.), and stored in the dark at 4° C. for confocal analysis.
Apoptosis in COC and OOX was visualised and quantified using confocal microscopy. Dual fluorescence emission from CC was detected using a Nikon C1 Confocal Scanning Head and a Nikon TE2000E microscope (Nikon, Tokyo, Japan). Simultaneous emission capture of the apoptotic signal (fluorescein, lacer excitation 488 nm, emission 510-530 nm) and the nuclear signal (propidium iodide, excitation lacer 532, emission 590-640 nm) was performed.
In order to generate an accurate representation of the overall apoptotic incidence for all complexes, the depth of each complex was measured through a Z series to divide the construct into three percentiles (optical Z plane sections) at 25%, 50% and 75%. These optical section images were acquired and saved as independent colour channels (green, apoptotic cumulus fluorescence and red, nuclear cumulus fluorescence). The captured images were then processed in Scanalytics IPlab software Version 3.6. (Scanalytics, Fairfax, Va.). Quantification of CC number (for each colour channel) was independently measured using a macro script utilizing an auto segmentation filter for each optical section percentile (3 optical “z”-plane sections for each complex).

Molecule | effect on incidence of cumulus cell apoptosis | effect on cumulus cell apoptosis (OOX treated with 100 ng/ml BMP-7 and/or 10% BMP-15) | effect on CC apoptosis, test for additive effect (OOX treated with DO, 10 ng/ml BMP-6 and/or 10% v/v BMP-15)
BMP-15: Recombinant ovine BMP-15 produced in-house in transfected 293H cells, partially purified by hydrophobic interaction chromatography; dosed as % v/v (protein, UniProt Q9MZE2 269-393, looked up) Bone morphogenetic protein 15: QAGSIASEVPGPSREHDGPESNQCSLHPFQVSFQQLGWDHWIIAPHLYTPNYCKGVCPRVLHYGLNSPNHAIIQNLVSELVDQNVPQPSCVPYKYVPISILLIEANGSILYKEYEGMIAQSCTCR | significantly reduced | significantly reduced | significantly (P<0.001) decreased
GDF-9: Recombinant mouse GDF-9 produced in-house in transfected 293H cells, partially purified by HIC (protein, UniProt Q07105 307-441, looked up) Growth/differentiation factor …: GQKAIRSEAKGPLLTASFNLSEYFKQFLFPQNECELHDFRLSFSQLKWDNWIVAPHRYNPRYCKGDCPRAVRHRYGSPVHTMVQNIIYEKLDPSVPRPSCVPGKYSPLSVLTIEPDGSIAYKEYEDMIATRCTCR | no significant effect |  | 
